Here are results for three molecules from publication PMC8934645, “Discovery of potent and versatile CRISPR–Cas9 inhibitors engineered for chemically controllable genome editing”.

One series deals with St3Cas9;AcrIIA24 (Streptococcus …, UniProt Q03JI6;A0A3G8FCC3 1-1388;1-104, |). As to the kind of experiment: EMSA; sgRNA; AcrIIA24 added before DNA; supershift; 20 mM Tris-HCl pH 7.6, 150 mM KCl, 5 mM EDTA (Results text: 10 mM EDTA), 5 mM MgCl2, 1 mM DTT, 5% glycerol, 50 ug/ml heparin, 0.01% Tween 20, 100 ug/ml BSA; RNP and DNA steps 37 C 10 min, Acr RT 20 min; RNP 256 nM, DNA 20 nM; RNA EMSA 256 nM Cas9 and sgRNA, 37 C. The conditions noted are these: protein: recombinant;recombinant; tags: His (pET28a, Ni-NTA);tag removed by TEV; copies: 1;1; label: Cy5 on target strand; blunt. (In general: Mobility shift assays separate free from complexed probe on a gel.)

The next series concerns the target St1Cas9;AcrIIA30 (Streptococcus …, UniProt Q03LF7; 1-1121;, |). The series is described as follows: EMSA; sgRNA; AcrIIA30 added after DNA; supershift; 20 mM Tris-HCl pH 7.6, 150 mM KCl, 5 mM EDTA (Results text: 10 mM EDTA), 5 mM MgCl2, 1 mM DTT, 5% glycerol, 50 ug/ml heparin, 0.01% Tween 20, 100 ug/ml BSA; RNP and DNA steps 37 C 10 min, Acr RT 20 min; RNP 256 nM, DNA 20 nM; RNA EMSA 256 nM Cas9 and sgRNA, 37 C. Particulars: protein: recombinant;recombinant; tags: His (pET28a, Ni-NTA);tag removed by TEV; copies: 1;1; label: Cy5 on target strand; blunt.

The target of another series is SpyCas9;AcrIIA32.1 (Streptococcus pyogenes;Streptococcus …, UniProt Q99ZW2; 1-1368;, |). As to the kind of experiment: EMSA; sgRNA; AcrIIA32.1 added after DNA; supershift; 20 mM Tris-HCl pH 7.6, 150 mM KCl, 5 mM EDTA (Results text: 10 mM EDTA), 5 mM MgCl2, 1 mM DTT, 5% glycerol, 50 ug/ml heparin, 0.01% Tween 20, 100 ug/ml BSA; RNP and DNA steps 37 C 10 min, Acr RT 20 min; RNP 256 nM, DNA 20 nM; RNA EMSA 256 nM Cas9 and sgRNA, 37 C. The conditions noted are these: protein: recombinant;recombinant; tags: ;tag removed by TEV; label: Cy5 on target strand; blunt.

B1: Substrate DNA, St3Cas9 sgRNA target (dsDNA)
DNA 1: CTCACGGGTGTCATTCTCCACTCAGTGGCAGACCTTGCTCCCGCGAGGAGTAGTCG
DNA 2: CGACTACTCCTCGCGGGAGCAAGGTCTGCCACTGAGTGGAGAATGACACCCGTGAG
For B1, in the series with St3Cas9;AcrIIA24, the binding result is recorded as “binds”.

B2: Substrate DNA, St1Cas9 sgRNA target (dsDNA)
DNA 1: B1 DNA 1
DNA 2: B1 DNA 2
Turning to B2, the binding result with St1Cas9;AcrIIA30 is listed as “binds”.

B3: Substrate DNA, SpyCas9 sgRNA target (dsDNA)
DNA 1: B1 DNA 1
DNA 2: B1 DNA 2
Take B3: the binding result with SpyCas9;AcrIIA32.1 is given as “binds”.
